Measured values published in paper PMC5739758, “Human oncoprotein Musashi-2 N-terminal RNA recognition motif backbone assignment and identification of RNA-binding pocket”.

Experiments:
MSI2-RRM1 [1] = molecular target: T1, MSI2-RRM1 (human, UniProt Q96DH6 21-111); assay: TR-FRET; 2 nM RNA; no detectable binding in nM range; TR-FRET at room temperature (FP per earlier publication; binding buffers not given; protein stored in 50 mM Tris-HCl pH 8.0, 500 mM NaCl); NMR 20 mM MES pH 6.0, 150 mM NaCl, 5% D2O, 298 K; details: protein: recombinant; tags: N-terminal His6 + TEV site (residues -3 to 20); label: 3' biotin
T1 sequence (Q96DH6 21-111): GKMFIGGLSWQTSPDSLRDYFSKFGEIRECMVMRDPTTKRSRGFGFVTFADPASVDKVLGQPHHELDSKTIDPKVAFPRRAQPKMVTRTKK

MSI2-RRM1 [2] = molecular target: T1, MSI2-RRM1; assay: NMR; 1H-15N HSQC titration, 1:1, slow exchange; TR-FRET at room temperature (FP per earlier publication; binding buffers not given; protein stored in 50 mM Tris-HCl pH 8.0, 500 mM NaCl); NMR 20 mM MES pH 6.0, 150 mM NaCl, 5% D2O, 298 K; details: protein: recombinant; tags: N-terminal His6 + TEV site (residues -3 to 20)
MSI2-RRM1 [3] = molecular target: T1, MSI2-RRM1; assay: TR-FRET; 2 nM RNA; TR-FRET at room temperature (FP per earlier publication; binding buffers not given; protein stored in 50 mM Tris-HCl pH 8.0, 500 mM NaCl); NMR 20 mM MES pH 6.0, 150 mM NaCl, 5% D2O, 298 K; details: protein: recombinant; tags: N-terminal His6 + TEV site (residues -3 to 20); label: 3' biotin

UAGCAUCAUCAUUUA (ssRNA) [Numb-mutBiotin]
binding result (MSI2-RRM1 [1]): no binding

GUAGU (ssRNA) [Numb5]
binding result (MSI2-RRM1 [2]): binds

UAGGUAGUAGUUUUA (ssRNA) [NumbBiotin]
Kd (MSI2-RRM1 [3]): 2.07 nM
